# Data published in patent US12077763B2, “RNA-based control of powdery mildew” (Greenlight Biosciences, Inc., priority 2021, dated 2024).
# B1: GS3454 (nucleic acid)
# sense: GCUCUUCUCAAUGGAUCCCAAGAUGAUCUAAAUAGAAUCGCAGAACACUUUAAGUUGACAAAGUUGAAAGAGCUCUAUGAAAAACAAUGUCAAGUUUUAAAAAGAUUUGAUAGACCCAAUCCUUCUGUUCCAAUAGCCAUAGCACAUUUAUAUCCUCCAGGCCCUAUAAAUCCACAUUACUCAGCAGCUAUGGCACGAGAAGCUGAGAAAAAAAAUUCAAACCCUCUUAAAAACACUGCAACACAAACUAGUUCUAAGGAGGUUGGCUUAAGUACCAUUAGUAAUAAAAAUUCUCUUAUAAAUUCGAGGCGCUCAAAAGGACAAGAUAUGCCAACUCAGGCUAGCAGUUUGGCAGAAAAAUUUAGUCAAAGUAUGAUGGAUCAGGAGCUUGAUGAUGA
# antisense: UCAUCAUCAAGCUCCUGAUCCAUCAUACUUUGACUAAAUUUUUCUGCCAAACUGCUAGCCUGAGUUGGCAUAUCUUGUCCUUUUGAGCGCCUCGAAUUUAUAAGAGAAUUUUUAUUACUAAUGGUACUUAAGCCAACCUCCUUAGAACUAGUUUGUGUUGCAGUGUUUUUAAGAGGGUUUGAAUUUUUUUUCUCAGCUUCUCGUGCCAUAGCUGCUGAGUAAUGUGGAUUUAUAGGGCCUGGAGGAUAUAAAUGUGCUAUGGCUAUUGGAACAGAAGGAUUGGGUCUAUCAAAUCUUUUUAAAACUUGACAUUGUUUUUCAUAGAGCUCUUUCAACUUUGUCAACUUAAAGUGUUCUGCGAUUCUAUUUAGAUCAUCUUGGGAUCCAUUGAGAAGAGC
# B2: GS3466 (nucleic acid)
# sense: CACGAAUACGUGUAAUUCCUUCUCUCAUGAUACUUUCUCGUUUCUCACAUUGCUUUUUGAAUUUAGAAAAUGCUAGCGUUUCUAAAUCUUUUUGUUGAGCUUUUAAAUCGUUGAUCAUGGCCAUUUGCUCGUCAAUUUUUACUAAAAAGUCCUUGACAUGCCUAUUUACAUUGAAUACGUUUCUGGUAACCUUGGUUUGAAUAUUUUUUGCUCGAUUUGCAUAACGCAAUGUAUUCUGAGUCUCAUCAAAAUGUGCACUAGACGGACUUACGCAAACAAUCAUUACGGUCUUGCAAUUGCCACCGAGAGAAAACUUUAGCAGUCGAGUUAACUUUGAAUUCCGAUAUGGAACGUGGUUUUUUUUUCGGGGAUCACAAA
# antisense: UUUGUGAUCCCCGAAAAAAAAACCACGUUCCAUAUCGGAAUUCAAAGUUAACUCGACUGCUAAAGUUUUCUCUCGGUGGCAAUUGCAAGACCGUAAUGAUUGUUUGCGUAAGUCCGUCUAGUGCACAUUUUGAUGAGACUCAGAAUACAUUGCGUUAUGCAAAUCGAGCAAAAAAUAUUCAAACCAAGGUUACCAGAAACGUAUUCAAUGUAAAUAGGCAUGUCAAGGACUUUUUAGUAAAAAUUGACGAGCAAAUGGCCAUGAUCAACGAUUUAAAAGCUCAACAAAAAGAUUUAGAAACGCUAGCAUUUUCUAAAUUCAAAAAGCAAUGUGAGAAACGAGAAAGUAUCAUGAGAGAAGGAAUUACACGUAUUCGUG
# B3: GS3474 (nucleic acid)
# sense: UAAGCAAUUUGAUGAUGAUCAUUAUGGUCUGGAGAAAGUCAAGAAAAGACUCCUUGAAUAUUUAGCGGUUCUCAAACUAAAGCAAUCAAUAAAUCAAGACAUUGACAUCAAGAUUAAGAAGGCAUCUGAAGAAAGAGCACAUGAAAAACUAGAAAUCUUAAAAAGUCAGAGAAUGGUUGAUAAAUCGCCUAUCUUGCUACUCGUUGGUCCUCCAGGUGUAGGUAAAACAAGCCUCGCAAAAUCUGUUGCAACAGCACUUGGUCGUAAAUUUCAUCGAAUUUCUCUUGGUGGUGUUCGGGAUGAGGCUGAAAUUAGGGGACAUCGUCGUACUUACGUUGCAGCUAUGCCAGGCCUCAUAAUUCAAGGGCUUAAGAAAGUUGGAGUGUGCAAUCCCGUUUUUCUUUUAGAUGAAAUUGAUAAAAUUGGGAGUUCUAAUUUCCAAGGUGAUCCUAGCGCUGCAAUGCUCGAAGUCCUCGAUCCAGAGCAGAAUCACAGUUUUACAGACCACUACGUCAAUAUUCCAGUAGACCUUAGCAAAGUUCUGUUUAUCGCUACUGCAAAUAGUCUGGAUACUAUUUCACCACCACUCUUAGACAGA
# antisense: AAUGACAUGGAUUAUGUUGAACAUCAUUUUGGUCCUGCAGGCUUAAAUCGACAGGACAUUGUCCAUACAUACAGAACUCUUAAUGCAAAGAUUAUUAAAGCUGACCUCCUUCGUUAUUUGAUUAUGUAUGUGGAAGGAGGUCUAUACGCUGACAUUGAUGUCGAAGCUUUACGUCCAAUUGAACGUUUUAUUCCAGAGCGAUGGAACGAGAAAGACAUUGAUAUGAUUGUAGGGGUCGAGAUUGAUAUGCCGCAUUAUUCCGAUCACCCUAUUCUUGGUCCUAAAUCUAAAUCAUUUUGCCAAUGGACAUUUAUGUGCAAGCCACGUCUACCGGUGAUGAUGCAAUUAAUUGAUAAUAUUAUCGUCUGGCUCAAUCAGCUUUCCCGA
# B4: GS1806: dsRNA trigger SEQ ID NO 181; gene target Serine/threonine-protein kinase SCH9 (nucleic acid)
# DNA: GACCAACCACAGCACATTTCAAAGACAAGTACGCCTAATGACCAAAAGTCAACCATCTTAGTATATCCTGTTTCATCTAGGAGAACCTCAGGAGCAAGGTATTCCGTGGTACCACAGAATGTATTTGTCGTCTCATTTTTGGTCAAGTTAGCTTTTGAAAGACCAAAATCACATAAAGCGATATGTCCATTAGCATCGAGCAGAATGTTTTCAGGTTTTAGATCGCGATAAACGATGTCATGTTTGTGAAGGTGCTGGAGAGCCAAAATGAGCTCAGCTATGTAAAATTTTGCTCGCTCTTCACAGAACCTTCCTTCTCTTTGTAAATGCCAAAAAAGTTCGCCTCCAGACATATAATCAGTTACCAAATAGAGATCACTTGGAGTTTGGAATGAAAATTTAAGTCCAACAATGAACTGCGACTCTGCCATAGCTGTTCTGACTAAGATATTTCTTTCGCCAACAGTATGGGCGACCTCTTTCTTTTGTACAATAACCTTTTTCTGAAGGACTTTCATGGCATAAATTCTTCCTGTATCTTTTTTCCTGACTTGATAAACTTGACCAAAAGTTCCTTTTCCTATCAGTTTCAAGAATT
# B5: GS3467 (nucleic acid)
# sense: CCCAGCUUCAUUAGAGUGGUCAAAGAAACCAUUGUAGGUGUGAAUAGGAGGCUGAACUAGAGAUAAGAUGGUAUUAUGCAGAAUAUGACAAGUAGGAUUGCAUUGCUUAUCUUUAAUAAUCUCUCUCUUAAUUGUUAUCUUAGAAGCAAAGUUAGUUUCAUCAUCGCUUAAUUUUAAAUUAAUAAGUGAAACUUUGCUUCCAUAAGGUGAGCUACAAGGUGAUGGCUGAAUUAAAUCUUCAACUUUUUUAUUAUCAGUCCUUAUUUCUAGGUCAUAUGACCUAGAAUCUUCUAUAAAUUUUCUAAGCUUAUUUGAAGAAUCCUUAGUAGGUGUUUUUGCAAUGAAACGAUUAUUUUCUUCAGGUAAGAUUGUAGCGACGCUAACCGAUGACUCAGU
# antisense: ACUGAGUCAUCGGUUAGCGUCGCUACAAUCUUACCUGAAGAAAAUAAUCGUUUCAUUGCAAAAACACCUACUAAGGAUUCUUCAAAUAAGCUUAGAAAAUUUAUAGAAGAUUCUAGGUCAUAUGACCUAGAAAUAAGGACUGAUAAUAAAAAAGUUGAAGAUUUAAUUCAGCCAUCACCUUGUAGCUCACCUUAUGGAAGCAAAGUUUCACUUAUUAAUUUAAAAUUAAGCGAUGAUGAAACUAACUUUGCUUCUAAGAUAACAAUUAAGAGAGAGAUUAUUAAAGAUAAGCAAUGCAAUCCUACUUGUCAUAUUCUGCAUAAUACCAUCUUAUCUCUAGUUCAGCCUCCUAUUCACACCUACAAUGGUUUCUUUGACCACUCUAAUGAAGCUGGG
# B6: GS3472 (nucleic acid)
# sense: UUAUUUGUGGCGACCUACCGAAAAUAAUCGAAGAUUCGCAAUGAGUGAUGAGUUAGCACAGGACGAUGAAGGUUUUGAAAUAUCCGACUUUGGAGUUGAAGACGAUGAAAUAGAGUCUACUAUAGGCCAAAAAGAAGAUAGAGAUCAAAGGCCAGAAGAGACGAGGUACAAUCCUGCGCCGAAAAAUUCCGGACGAAAGACUGUAAAAAAUACAACACGUGAGAGCUUAGAAAGAGAAACGAUAUUUACUGUUGGUGAAGACGGGGACAAAUGGUCAAAUAAUGAUAGUGACGAGGAGCAUGUUAAUCUCGUUAGUGGGUCAAACAAGCCUUCUUAGAUUUACGACAAUUUUUUU
# antisense: AAAAAAAUUGUCGUAAAUCUAAGAAGGCUUGUUUGACCCACUAACGAGAUUAACAUGCUCCUCGUCACUAUCAUUAUUUGACCAUUUGUCCCCGUCUUCACCAACAGUAAAUAUCGUUUCUCUUUCUAAGCUCUCACGUGUUGUAUUUUUUACAGUCUUUCGUCCGGAAUUUUUCGGCGCAGGAUUGUACCUCGUCUCUUCUGGCCUUUGAUCUCUAUCUUCUUUUUGGCCUAUAGUAGACUCUAUUUCAUCGUCUUCAACUCCAAAGUCGGAUAUUUCAAAACCUUCAUCGUCCUGUGCUAACUCAUCACUCAUUGCGAAUCUUCGAUUAUUUUCGGUAGGUCGCCACAAAUAA
# B7: GS3457 (nucleic acid)
# sense: UCAGGCAAGGGUGGAGUGGGUAAAAGUACAUUUACAACACUGCUUGCACAUGCACUUGCAAAAGACCCGGAAAUUGUGGUUGGUGUCAUGGAUACAGAUAUUUGCGGGCCAAGUAUUCCAAAAAUGAUGGGAGUUGAGGAAGAGAUUAUUCACGUCAGUAAUACAGGAUGGAGUCCAGUUUGGGUACUUGAAAAUCUAGCAGUAAUGAGCGUGCAAUUUAUGCUUCCCAACCGAGAUGAUGCAGUUAUUUGGAGAGGACCAAAGAAAAACGGCCUGAUAAAGCAAUUUUUAAAAGAUGUAGAAUGGGGCGAAAUGGAAUAUUUAUUAGUAGACACUCCACCAGGAACAAGUGAUGAACAUUUGAGUGUCAACACUUUUUUGAAAGAGAGUGGAA
# antisense: UUCCACUCUCUUUCAAAAAAGUGUUGACACUCAAAUGUUCAUCACUUGUUCCUGGUGGAGUGUCUACUAAUAAAUAUUCCAUUUCGCCCCAUUCUACAUCUUUUAAAAAUUGCUUUAUCAGGCCGUUUUUCUUUGGUCCUCUCCAAAUAACUGCAUCAUCUCGGUUGGGAAGCAUAAAUUGCACGCUCAUUACUGCUAGAUUUUCAAGUACCCAAACUGGACUCCAUCCUGUAUUACUGACGUGAAUAAUCUCUUCCUCAACUCCCAUCAUUUUUGGAAUACUUGGCCCGCAAAUAUCUGUAUCCAUGACACCAACCACAAUUUCCGGGUCUUUUGCAAGUGCAUGUGCAAGCAGUGUUGUAAAUGUACUUUUACCCACUCCACCCUUGCCUGA
# Test system: E. necator
# Test: Leaf disc assay, dry inoculum (settling tower), decrease in disease severity / hyphal growth (Example 2)
# Settings: decrease in disease severity (hyphal growth) relative to untreated control, value ± SE; for % decrease =/− SE TP1: time point 1 (untreated control hyphal growth ≥50%); for % decrease =/− SE TP2: time point 2
molecule,measurement,value
B1,% decrease =/− SE TP1,4 ± 4%
same,% decrease =/− SE TP2,0 ± 9%
B2,% decrease =/− SE TP1,21 ± 7%
same,% decrease =/− SE TP2,19 ± 11%
B3,% decrease =/− SE TP1,17 ± 5%
same,% decrease =/− SE TP2,9 ± 8%
B4,% decrease =/− SE TP1,34 ± 7%
same,% decrease =/− SE TP2,21 ± 7%
B5,% decrease =/− SE TP1,25 ± 4%
same,% decrease =/− SE TP2,13 ± 7%
B6,% decrease =/− SE TP1,28 ± 5%
same,% decrease =/− SE TP2,22 ± 6%
B7,% decrease =/− SE TP1,13 ± 4%
